Results reported in the DeepSol protein solubility set.

test: soluble on expression in E. coli; label from the status in PepcDB or PDB records

Sequence | soluble on expression in E. coli
SSKRKRKRSVQEGENPDDGVRGSPPEDYRLGQVASSLFRGEHHSRGGTGRLASLFSSLEPQIQPVYVPVPKQTIKKTKRNEEEESTSQIERPLSQEPAKKVKAKKKHTNAEKKLADRESALASADLEEEIHQKQGQKRKNSQPGVKVADRKILDDTEDTVVSQRKKIQINQEEERLKNERTVFVGNLPVTCNKKKLKSFFKEYGQIESVRFRSLIPAEGTLSKKLAAIKRKIHPDQKNINAYVVFKEESAATQALKRNGAQIADGFRIRVDLASETSSRDKRSVFVGNLPYKVEESAIEKHFLDCGSIMAVRIVRDKMTGIGKGFGYVLFENTDSVHLALKLNNSELMGRKLRVMRSVNKEKFKQQNSNPRLKNVSKPKQGLNFTSKTAEGHPKSLFIGEKAVLLKTKKKGQKKSGRPKKQRKQK | soluble
QQRQRRKRKELTNLIRRFRNGAESLPDAVVVFRAEGNIVWCNRLAQHLLGFHWPEDSGQPISNLIRTPDFIKYLNKKDFSEPLEMRSPLNVERMLELRIVPYTEGEHLMVVRDVS | soluble
MTIDTDLDRTPAASSENPVEARRTQARAWFEGLRDRICAEIETLEREAPAELFPGEPATFTYKPWQRKTGAGGGVGGFLSNGRLFEKIGIHTSSANGKLTPEMAKNVPGDGSLDYVSTSISLIMHPRSPRVPTVHMNTRFLSTSQGWFGGGADLTPMLPEQRSQDAEDAVIFHTAMKHACDAHDPAYYDKFKPWADTYFFLPHRGVARGVGGIFFDYLNSGDFDRDFAFTRAVGSALLDVYPKIVRKRMIEPWTDAERAQQLACRGLYVEFNLLYDRGTMFGLQTGGNTETIMSSMPPLVSWSMAGDPLEHHHHHH | not soluble
MGDIEGSSSAAQSAQPEETGETNADKTGFFTRIMDAFSSGESQQEPTLGGASAAPVPVPGILNLRRMRVEDVAIPTAEIVSVPLTVSKEELVHVFRDSGMTRIPVYENTLDTPLGFVHLKDFALTHGFNGNSTQFDLRSMLRPLLFVPPSMPIGVLLAKMQTERRHMALVIDEYGGVDGLLTIEDLIEQVVGEIEDEHDTDEAQTWVKERPGCYIAQARTPLDEFETEIGRSLTNHEDVDEEEIDTLGGLVFMLSGRVPARGEVVPHPDGVEFEVIDADPRRIKRLRVMIPDAAE | not soluble
MSLSPPLTLNPEQAVAVASIFEHIHHYQCFLLQGVTGSGKTEVYLHVIAKILEQGKQVLVLVPEIGLTPQLLSRFTARFNHPITVLHSNLNESERQIAWQLAKENKVKMVIGTRSAVFTPLPNLGLIIIDEEHDSSLKQMEGVRYSARDTALMRAHLANIPIILGTATPSLETIHNCKQKKYNLLRLTHKAASTTPLHYQLIDLRSQMVQHGLALPTLKIIENHLLQQNQVLVFINRRGFAPVLLCHQCGWMVDCKACDSHLTLHKQAGQMICHHCGLTQRIPLFCNNCQSKELIPVGSGTQRIYEFLSHQFPDTNVLRIDRDEVRKKNSLNSHLDKINKGEAQLIIGTQMLAKGHHFPRLSLVVVVDADAGFYNQDFRAIEHLGQLLTQVSGRAGRAEHPGQVLIQTYLPDHPLLNLLIQHGYDEFANALLISRQEAEMPPFQFLAVIRAQGRTVSKVDQFLKATKDQIQAHPLTVLGPAPAPLPRKANQHRMQLLIKSPSRKVLKSSLTQLREWLTMNKLSNGIRWNVDVDPMDLSEGHHHHHH | not soluble
ADGNNIKAPIETAVKPPHRTEDNIRDEARRNRSNAVNPFSAKYVPFNAAPGSTESYSLDEIVYRSRSGGLLDVEHDMEALKRFDGAYWRDLFDSRVGKSTWPYGSGVWSKKEWVLPEIDDDDIVSAFEGNSNLFWAERFGKQFLGMNDLWVKHCGISHTGSFKDLGMTVLVSQVNRLRKMKRPVVGVGCASTGDTSAALSAYCASAGIPSIVFLPANKISMAQLVQPIANGAFVLSIDTDFDGCMKLIREITAELPIYLANSLNSLRLEGQKTAAIEILQQFDWQVPDWVIVPGGNLGNIYAFYKGFKMCQELGLVDRIPRMVCAQAANANPLYLHYKSGWKDFKPMTASTTFASAIQIGDPVSIDRAVYALKKCNGIVEEATEEELMDAMAQADSTGMFICPHTGVALTALFKLRNQGVIAPTDRTVVVSTAHGLKFTQSKIDYHSNAIPDMACRFSNPPVDVKADFGAVMDVLKSYLGSNTLTS | soluble
MKKRYRAINDYYRELFGEKIFKLPIDAGFDCPNRDGTVARGGCTFCTVSGSGDAIVAPEAPIREQFYKEIDFMHRKWPEVNKYLVYFQNFTNTHAKLEIIKERYEQAINEPGVIGINIGTRPDCLPDETIYYLAELSERMHVTLELGLQTTYEATSALINRAHSYDLYKKTVKRIRELAPKVEIVSHLINGLPGETHDMMVENVRRCVTDNDIQGIKLHLLHLMTNTRMQRDYHEGRLRLLSQEDYISIICDQLEIIPKHIVIHRITGDAPRHMLIGPMWSLNKW | not soluble
MGSDKIHHHHHHMRIAIDPFMHRHLSLEELPRKVRELGYDWIEMSPRADFLEWFKAPRVFPQRMKEFKKALAAENVKIASLLPMYRWASNDETERKAAVKHWKRAIEIAVEMEIDTMNSEFGRGPHPDKGSCYCCHTGSMIEACEDAWWRSMEELVPVFERENIQLNIEPHPEDWCETLQPALDIIRTVNSKNVKFLYCAPHTFYFGDDTKAMLREAKDVLAHVHVGDTFNHKASSGLRYILNPPGTQARVHQHLNIGQGEVPWDDFFGTLAEIGFDGTMTACVFAWEDRADHSGKFMLSEMNRYIEKYWPK | not soluble
MPISTPQEIIEDIRQGKMVILMDDEDRENEGDLIMAAEHITPAAINFMATHGRGLICLTLTKERCRRLGLNPMVQDNNAQYTTNFTVSIEAAEGVTTGISAADRARTVQAAVAKEAKAADLVQPGHIFPLAAQDGGVLTRAGHTEAGCDLARLAGLEPASVIVEILNDDGTMARRPDLEVFAEKHGLKLGTIADLIEYRNHTETTIERVAQCKLPTEYGEFELVTYRDIIDKQIHFALRKGDITSAPTLVRVHLQDTFTDLLHSNRAAERSWPLATAMQRIGQEGGVLVILGHEESSELLLHRVKMFELQDKGEAPAMAKKQGTSRRVGVGSQILADLGVKEMRLLSSPNKKYHALGGFGLNVVEYVCE | not soluble
MTSQTAFDLIFRNTLLRSSAAPVDIGVKGGRIAAIEPGLTCEAVEVDVGGHLALPGFVDTHIHLDKACLLGRCGHNHGSVSEAIRAVAGMKKDFTVEDVYARGARVLERAIVHGTTRMRTHVEIDPRIGLRGFEAVKALKRDYAWAIDLSLCVFPQEGLTNDPGAEDLLIQALRDGGETIGGCPYMDTDPNTHLERIFNLAQEFDVDVDLHLDFDLDPSWWHLDEVCRQTERRNYGGRVAVGHATKLSALPPEPLKAATAQLAKAGVAVTVLPATDLYLMGREATHNAPRGLTLAHKLAGDGVLCSVATNNVLNPFTPFGDASLLRMANFYANVAHASVSDFDICLDLVTELPARLMNLGDYGIKVGNPADLIVLDTQDSRFAIAELPDVMMGFKAGRQTFARQRPTLFSPGR | soluble
MAEITEVRIYKSKGNGSVKAYASVSFDNEFVVKGLKVVEGEKGLWVSMPSRRMKDGSFQDVFHPVSREARDKIVDAVLKAYQEQE | not soluble
TIEIYKNKIPDGKNAGKDAILIKDNNLIKQLEDAAKKNGAESNQKQGGESNVQKEQIIGYTTTGNVREDGNHIFRVDKINDEQYDRKIIVGVTVETLEQSSTLQSEEAIVLAAPGKYKSTDKKKVTITQGPNIIGIHANEKENAETQKFVDW | soluble
MLLRKFCGIEKTDNGYLIHGDAGDIKLVFMTDDIIRIRVSFDRKFKEASYALVTTAWEDELDELFQEERTRIQAKDVVCEEKEDALIFHTTALKLVMKKQPIQFLLYDVEGKLIYNDLKERAFDQDQLGRVTHYSEIHADTDHFYGFGEKTGHLDKKGRHLRMSPKDAIGADPEFGEPLYKHVPFYIRVNEENLHALGLFYNNSYDAVFDMGNERSGYWDSYCYYQADGGDIDLFLINGPKMASVLERYTYLTGRQAMPTKQSLGYTASTMYYAELEQNCDEEIYKVIQKHFDEKIYIDNFWLASGYSSGEEDNLRYVFNWNKKRFPDPEGFFEKMEQEMGINVIPNMKPGILKNHPYRKVFEQYDAFVKTPDKAEDYVGRWWGGEGRFVDFTKKAGRDAWKELLKKNLMAKGMRTVWNDNCEYDGVEDRNAYCDHEGMGGTMAELKIIQSNMMAYTGKEALKEVYPKARPYIINRAGYAGIQRYAQVWAGDNLTDWRTVKFNIATIMGMGLSGMSNAGCDIGGFAGPAPGGELLLRWIQNGIFQPRFCINSANNDNTVTQPWMYEENLPYVQAAYAQRYRMIPYLYSVMRESHENGMPVMRPLFLEFPEDVKCYRDQNLTFMFGPSVLVANVVEKGAITRTIYLPKGTTWYDMNDNFKAYEGGQTIELPVDLSSIPMFLRGSAVYMTTEDIHHIAKDTMKALDLFVSCEEDAEFTYYDDDGWSKEYEEGNFAETKISVKAGDRKQIHFHKNGFYQESWENLNLNVVSKEKGAYWVSVDGEKIPRFLIRDAFDEAETGWYYDMSDRIVKVKCKKPQKDDFEIVVSCEKFDLIGMENEI | not soluble
MGSDKIHHHHHHMTNQTQSMALMVPQSSSSLEAYIHSAHNIPMLEANEEYELAKRLQETGDIQAAKQLIMSHLRFVIHVAKGYAGYGLPQADLIQEGNIGLMKAVKRFDPDVGVRLVSFAVHWIKAEIHEYVLKNWRIVKVATTKAQRKLFFNLRKAKKRLGWFSDEEVTMVAENLGVSKSDVTEMESRMAAQDPAFDLASDNDDDQDYAPVHYLEDHSSDIASQVENDNFEADNQTRLLAAIKTLDERSQHILQARWLDEEKTTLQELAATYQVSAERIRQLEKNAMNKLKGRMEM | not soluble
MSLGELNVATVTRRPEILLVDSQEVILQRLQQLLSPLPYTLHFARDATQALQLLASREVDLVISAAHLPQMDGPTLLARIHQQYPSTTRILLTGDPDLKLIAKAINEGEIYRYLSKPWDDQELLLALRQALEHQHSERERLRLQDLAQQQNAELKALNTLLEKRVAARTSELQQTADMLDLAYEELKPSYATGAELFSLLVNQRLPADKQTNRRIIELVRAYCKVQGIDPGAQRDLAMAAALHNIGKLSWSDSMMTSPADLLHHHQRERYRAYPAQSESLLMTLEPVQDAARLIRHHQEHWDGSGFPDHLKGDAIPLGSRLLKLAVDFIELQCGLILERHMNSDEALVFIRKYAGRLYDPDLVEGFIQVCAVYLSDVTLGDPSVKVLSTRELAAGMILARNLNADNGMLLLNAGKVLNLPLVDKLIAFETMEGARYSVFVKLPQEQQARAEGHHHHHH | not soluble
MTDNARKEYLNQFFGSKRYLYQDNERVAHIHVVNGTYYFHGHIVPGWQGVKKTFDTAEELETYIKQQDLEYEEQKQLTLFLEHHHHHH | not soluble
MSAEPEFVAARFLPEGERFLVEPLGGGLINRTWLVSPAASPRFVLQRLNTRVFAHPGRITVNLCRIQGRVKQGRSGLAEHWPDLVAPRAGGDAFIDAEGGYWRAQRYLEGSRVLEHIATERQALEVGRVLGTFHAALGEIDCTELEDTLPDFHIAPAYLARLDAVRTSAGAADPSVRQALDFVEARRDFVPVLERAKAAGRLALRIIHGDPKLANILFDRDGERALTLIDLDTVKPGLVHYDIGDCLRSCCNRSGESSDDPGAARFDLALCEAILRGYLAAAGDMLTAEDRDHLYDAIRLIPLELGIRFLADHLAGDVYFRVESRGQNLRRARVQFRLVECIEADETAIRRIVAAPSPSMETGEGLEHHHHHH | not soluble
MGHHHHHHSHMSLFSGTIQNLENALSRADIKQKVITNNIANIDTPNYKAKKVSFQNLLDQESSRLEAIKTDYRHVDFSDTDSNYSIVASGDTSYQQNGNNVDVDKEMTELAQNQINYQALVERMNGKFNSLKTVLTGGK | not soluble
MDNKIMLRNRYISKIQNKLRDLTDSINFLSEIDQAILNQTAGAGPGAAGPGAAPDRSSTINLQALREKLTTLNTDDGPTRTAIRDKTAAIQTSIRDINLKLEELMKNINTSAGKLADAVSAIPTPTDDLGAAGAAGAAGAAGAAAGAGAGAA | not soluble
